The text below walks through data of paper PMC5256923, “RNA and DNA Targeting by a Reconstituted Thermus thermophilus Type III-A CRISPR-Cas System” (PLoS ONE, 2017).

The target in assay [1] is T. thermophilus Csm5, His10 tag cleaved off with HRV 3C protease (T. thermophilus) (UniProt Q53W18). Description: native MS; native nanoESI-MS, positive ion mode, about 5 uM of the co-expressed and co-purified TthCsm complex (with crRNA) exchanged into 1 M ammonium acetate, 5% glycerol.
Assay [2] has as its target T1, T. thermophilus Csm5, His10 tag cleaved off with HRV 3C protease (T. thermophilus, UniProt Q53W18 1-397).
T1 construct: Csm5 of Thermus thermophilus (locus TTHB151), codon-optimized gene; Same construct as m1 after 3C cleavage; also called TTHB151; source: E. coli BL21(λDE3), co-expressed with the other Csm subunits, Cas6A and crRNA 4.5; co-purified in the TthCsm complex (Ni-NTA, 3C cleavage, Ni-NTA, Superose 6)
T1 sequence (looked up): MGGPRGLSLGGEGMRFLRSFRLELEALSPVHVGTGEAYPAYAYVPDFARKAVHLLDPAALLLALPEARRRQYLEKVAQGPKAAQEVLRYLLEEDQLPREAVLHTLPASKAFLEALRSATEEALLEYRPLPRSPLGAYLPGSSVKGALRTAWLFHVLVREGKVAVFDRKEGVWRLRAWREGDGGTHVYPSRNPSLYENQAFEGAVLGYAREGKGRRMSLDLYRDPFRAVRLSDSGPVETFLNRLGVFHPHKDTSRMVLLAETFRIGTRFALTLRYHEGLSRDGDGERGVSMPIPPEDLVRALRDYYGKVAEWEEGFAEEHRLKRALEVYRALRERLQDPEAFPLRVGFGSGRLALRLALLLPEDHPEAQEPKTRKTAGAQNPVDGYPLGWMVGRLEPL
Described as above. The note with it: both partners purified.

Where “and” joins values, the source holds several entries; their conditions need not be identical. Equal entries are not always repeated.

Consider “T. thermophilus Csm4 (from UniProt Q53W19 1-805) (natural protein)”, for which, in assay [1], the stoichiometry N (usually a count of units in the complex or per binding partner) worked out at 1.

With T. thermophilus Csm2 (natural protein), the stoichiometry N in assay [1] was 3 and 4.

As for T. thermophilus Csm3 (natural protein), the stoichiometry N in assay [1] is 6 and 4.

B1: T. thermophilus Cas10/Csm1 (natural protein, UniProt Q53W19 1-805, looked up)
chain: MLGDGLSVALAGLLHDVGKLYSRARWGERDDQVPDRTHTAYTAHFVREHAGLFRGAGLDPDWLARTASRHHEGWRDRPQYRPETPEEWCVALADTYASKEREEGEGGGSPPEVPLSPPFRRLLLGGEEGREGGYSPVGAGGRVGLEAGGLYPEERPNVSKDVYKRLLERLEGRLEEMARFSLGKEALVLNLALALQETLSLVPSDTQSEPDVSLYDHLRLTAAIAHALWLFHGGSPSAQNLRQDGEKFLLVVGDMGGIQGHIYRIAGAEAGVGGIAKRLRARSLEVSLAAEAMALGLLWRLGLTSLNRILGAGGKFYLLLPNTEEARAALEGTREAWGRWALKRGGSLVPHLAWVAFRGQDFRDFAALLKRLHEALAREKLRPFAFLASTGGVLGAPLRPCAACGLEPARRDEPGSLCPDCEREAALGARLPRSDRVGFFLEEAPRPYLDFPGLKVGLGGPLEGAFHLFRARLDFAPWPDPSEAKPLLGHLPRVEHALKAKGWSLEAYRAWAEEEGLLEDEEPHPEKVLTFAELAALSEGAPYLGALMLDADRMGEAFATGFRREGRDLATPSRLAALSRTLEVFFTTEVLTLLEEPRRYRERLGWDDLEAQRKEARYPLLYSVYSGGDDLFLLGPWDALLDFALDLERLYRLFTRHPRLTLSGGFLLVPPSLPVPELARLLGEAEKRAKAEGRERLFLFGQAVPWETLRGLRAWAEGLRQDLRAERVSRAQVYRWLLLWRRFSPLEDPGERMRYKPLLAYALRRVRERDEEAWKRYLKLLDHQDPAWAYLPVWVQWALYRERRV
notes: Cas10/Csm1 of Thermus thermophilus (locus TTHB147), codon-optimized gene; also called TTHB147; source: E. coli BL21(λDE3), co-expressed with the other Csm subunits, Cas6A and crRNA 4.5; in lysate, and co-purified in the TthCsm complex (Ni-NTA, Superose 6)
Regarding B1, in assay [2], the “stoichiometry N” value is 1.
